The supplement of paper PMC10065799, “High-throughput profiling of sequence recognition by tyrosine kinases and SH2 domains using bacterial peptide display” (eLife, 2023)

Assays:
Grb2 SH2 = Grb2 SH2 (UniProt P62993); experiment: SH2 binding enrichment of the phosphorylated peptide, bacterial display (enrichment ratio); higher = better substrate or ligand; peptides without Tyr show the background
c-Src SH2 = experiment: as above
SHP2-C SH2 = experiment: as above
EPHB1 = EPHB1 (UniProt P54762); experiment: phosphorylation enrichment, bacterial display (enrichment ratio); higher = better substrate or ligand; peptides without Tyr show the background
EPHB2 = EPHB2 (UniProt P29323); experiment: as above
FGFR1 = FGFR1 (UniProt P11362); experiment: as above
AncSZ = experiment: as above
c-Abl (mouse) = experiment: as above
Hck = Hck (UniProt P08631); experiment: as above
Fer (mouse) = experiment: as above
Jak2 = Jak2 (UniProt O60674); experiment: as above
MERTK = MERTK (UniProt Q12866); experiment: as above
c-Src = experiment: as above
Fes = Fes (UniProt P07332); experiment: as above
Fyn = Fyn (UniProt P06241); experiment: as above
FGFR3 = FGFR3 (UniProt P22607); experiment: as above
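For SH2 binding enrichment of the phosphorylated peptide, bacterial display in this document: peptide library displayed on the E. coli surface as eCPX fusions, selected cells deep-sequenced, score is each peptide's frequency after selection divided by its frequency in the input.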
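For phosphorylation enrichment, bacterial display in this document: 11-residue human phosphosite peptides and single-mutation variants displayed on the E. coli surface, counted by deep sequencing, each peptide's frequency after selection divided by its frequency in the unselected input library; frequency after pTyr selection over input frequency; kinase dosed for 20-30% of maximal phosphorylation in three min.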

Chain of Fyn (P06241 whole entry, looked up): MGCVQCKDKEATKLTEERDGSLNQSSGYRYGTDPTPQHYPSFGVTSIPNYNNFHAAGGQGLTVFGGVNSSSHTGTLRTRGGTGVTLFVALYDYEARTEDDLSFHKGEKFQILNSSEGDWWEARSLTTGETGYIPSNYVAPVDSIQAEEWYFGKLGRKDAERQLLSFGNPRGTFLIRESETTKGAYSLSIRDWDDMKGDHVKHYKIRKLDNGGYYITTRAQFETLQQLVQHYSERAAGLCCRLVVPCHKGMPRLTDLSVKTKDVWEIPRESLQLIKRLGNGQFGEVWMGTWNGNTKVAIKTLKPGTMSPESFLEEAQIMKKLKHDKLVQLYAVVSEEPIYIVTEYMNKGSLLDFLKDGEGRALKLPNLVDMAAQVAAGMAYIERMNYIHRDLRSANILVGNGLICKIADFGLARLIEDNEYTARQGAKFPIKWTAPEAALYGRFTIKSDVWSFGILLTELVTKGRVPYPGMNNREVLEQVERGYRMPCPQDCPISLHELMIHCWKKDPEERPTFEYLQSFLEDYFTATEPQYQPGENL
Chain of FGFR1 (P11362 whole entry, looked up): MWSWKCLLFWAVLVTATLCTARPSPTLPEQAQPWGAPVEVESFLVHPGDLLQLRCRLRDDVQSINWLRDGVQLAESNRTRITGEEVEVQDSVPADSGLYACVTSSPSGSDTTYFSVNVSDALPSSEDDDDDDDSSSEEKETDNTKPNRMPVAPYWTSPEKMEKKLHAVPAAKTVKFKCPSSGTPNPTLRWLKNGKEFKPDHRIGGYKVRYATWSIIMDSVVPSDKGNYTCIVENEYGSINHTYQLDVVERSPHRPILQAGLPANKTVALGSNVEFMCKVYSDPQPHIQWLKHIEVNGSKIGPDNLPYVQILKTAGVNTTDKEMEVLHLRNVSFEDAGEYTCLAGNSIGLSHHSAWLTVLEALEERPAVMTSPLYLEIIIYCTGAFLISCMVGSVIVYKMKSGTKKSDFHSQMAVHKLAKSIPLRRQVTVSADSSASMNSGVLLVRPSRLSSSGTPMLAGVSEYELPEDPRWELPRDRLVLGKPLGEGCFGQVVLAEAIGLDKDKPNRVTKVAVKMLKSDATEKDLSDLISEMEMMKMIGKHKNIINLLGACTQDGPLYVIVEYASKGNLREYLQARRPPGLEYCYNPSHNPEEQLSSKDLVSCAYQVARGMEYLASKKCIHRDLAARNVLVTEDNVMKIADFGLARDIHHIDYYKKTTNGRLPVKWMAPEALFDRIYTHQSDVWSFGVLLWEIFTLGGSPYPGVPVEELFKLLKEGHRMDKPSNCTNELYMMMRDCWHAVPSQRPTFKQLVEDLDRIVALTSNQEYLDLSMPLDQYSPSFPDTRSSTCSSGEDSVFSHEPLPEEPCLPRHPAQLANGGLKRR
Chain of Grb2 SH2 (P62993 whole entry, looked up): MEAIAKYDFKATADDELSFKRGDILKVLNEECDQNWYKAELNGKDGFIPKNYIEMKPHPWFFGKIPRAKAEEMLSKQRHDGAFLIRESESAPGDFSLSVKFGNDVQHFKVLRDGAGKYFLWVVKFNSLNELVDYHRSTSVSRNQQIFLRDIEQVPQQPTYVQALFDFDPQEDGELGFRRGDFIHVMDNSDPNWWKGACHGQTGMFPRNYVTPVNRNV
Chain of FGFR3 (P22607 whole entry, looked up, the tested form may be a part): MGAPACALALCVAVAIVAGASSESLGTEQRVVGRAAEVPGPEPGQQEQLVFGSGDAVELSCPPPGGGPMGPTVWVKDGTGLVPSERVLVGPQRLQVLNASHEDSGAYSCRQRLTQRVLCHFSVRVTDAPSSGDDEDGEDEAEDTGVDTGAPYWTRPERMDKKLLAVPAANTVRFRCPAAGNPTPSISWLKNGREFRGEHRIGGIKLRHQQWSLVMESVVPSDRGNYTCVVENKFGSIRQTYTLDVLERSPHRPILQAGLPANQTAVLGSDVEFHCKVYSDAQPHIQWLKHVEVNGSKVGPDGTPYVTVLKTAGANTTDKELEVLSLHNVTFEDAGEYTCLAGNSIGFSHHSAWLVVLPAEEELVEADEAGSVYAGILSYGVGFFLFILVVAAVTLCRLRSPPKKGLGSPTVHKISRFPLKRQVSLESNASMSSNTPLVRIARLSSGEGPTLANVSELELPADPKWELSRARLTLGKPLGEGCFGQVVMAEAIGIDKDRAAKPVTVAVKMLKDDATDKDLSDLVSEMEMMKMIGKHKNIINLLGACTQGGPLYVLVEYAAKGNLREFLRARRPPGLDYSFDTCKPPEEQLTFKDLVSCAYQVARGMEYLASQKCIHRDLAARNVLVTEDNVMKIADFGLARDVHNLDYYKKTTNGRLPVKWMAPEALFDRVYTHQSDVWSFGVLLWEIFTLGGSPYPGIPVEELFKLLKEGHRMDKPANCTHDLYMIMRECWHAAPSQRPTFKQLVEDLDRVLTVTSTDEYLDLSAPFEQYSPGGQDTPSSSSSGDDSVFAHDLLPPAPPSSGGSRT
Chain of Hck (P08631 whole entry, looked up): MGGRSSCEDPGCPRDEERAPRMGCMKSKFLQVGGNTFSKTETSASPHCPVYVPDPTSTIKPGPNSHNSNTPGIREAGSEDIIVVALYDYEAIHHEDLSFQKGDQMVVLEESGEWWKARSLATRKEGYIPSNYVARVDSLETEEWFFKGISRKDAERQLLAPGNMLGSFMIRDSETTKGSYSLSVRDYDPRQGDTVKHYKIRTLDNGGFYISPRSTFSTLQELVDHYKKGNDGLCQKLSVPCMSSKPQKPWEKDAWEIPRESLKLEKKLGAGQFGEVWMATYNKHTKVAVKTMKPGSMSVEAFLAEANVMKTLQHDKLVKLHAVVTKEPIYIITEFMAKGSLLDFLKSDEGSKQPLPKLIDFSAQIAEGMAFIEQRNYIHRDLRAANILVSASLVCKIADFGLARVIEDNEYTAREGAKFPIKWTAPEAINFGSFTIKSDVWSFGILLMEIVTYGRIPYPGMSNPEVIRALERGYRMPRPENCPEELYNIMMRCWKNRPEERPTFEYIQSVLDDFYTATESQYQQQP
Chain of Fes (P07332 whole entry, looked up): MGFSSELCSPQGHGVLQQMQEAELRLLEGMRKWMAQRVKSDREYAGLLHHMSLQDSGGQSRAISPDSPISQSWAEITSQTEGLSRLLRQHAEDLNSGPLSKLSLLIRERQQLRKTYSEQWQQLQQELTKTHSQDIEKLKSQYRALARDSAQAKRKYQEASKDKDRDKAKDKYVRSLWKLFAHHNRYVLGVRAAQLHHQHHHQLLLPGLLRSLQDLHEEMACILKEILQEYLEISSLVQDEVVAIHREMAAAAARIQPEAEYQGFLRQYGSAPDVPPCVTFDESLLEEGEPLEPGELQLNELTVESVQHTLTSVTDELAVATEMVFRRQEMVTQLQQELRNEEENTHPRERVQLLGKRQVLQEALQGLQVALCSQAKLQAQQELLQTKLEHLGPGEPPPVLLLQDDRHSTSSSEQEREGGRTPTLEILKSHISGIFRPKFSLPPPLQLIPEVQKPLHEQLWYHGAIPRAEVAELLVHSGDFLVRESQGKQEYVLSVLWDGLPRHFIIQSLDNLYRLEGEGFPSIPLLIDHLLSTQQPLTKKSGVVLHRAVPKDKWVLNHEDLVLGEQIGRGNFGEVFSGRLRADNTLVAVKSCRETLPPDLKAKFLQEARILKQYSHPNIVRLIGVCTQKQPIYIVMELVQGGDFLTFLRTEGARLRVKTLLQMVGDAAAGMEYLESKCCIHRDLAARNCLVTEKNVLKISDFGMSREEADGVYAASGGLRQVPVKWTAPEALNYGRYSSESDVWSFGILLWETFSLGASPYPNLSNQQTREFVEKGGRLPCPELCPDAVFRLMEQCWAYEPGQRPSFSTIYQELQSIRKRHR
Chain of EPHB1 (P54762 whole entry, looked up): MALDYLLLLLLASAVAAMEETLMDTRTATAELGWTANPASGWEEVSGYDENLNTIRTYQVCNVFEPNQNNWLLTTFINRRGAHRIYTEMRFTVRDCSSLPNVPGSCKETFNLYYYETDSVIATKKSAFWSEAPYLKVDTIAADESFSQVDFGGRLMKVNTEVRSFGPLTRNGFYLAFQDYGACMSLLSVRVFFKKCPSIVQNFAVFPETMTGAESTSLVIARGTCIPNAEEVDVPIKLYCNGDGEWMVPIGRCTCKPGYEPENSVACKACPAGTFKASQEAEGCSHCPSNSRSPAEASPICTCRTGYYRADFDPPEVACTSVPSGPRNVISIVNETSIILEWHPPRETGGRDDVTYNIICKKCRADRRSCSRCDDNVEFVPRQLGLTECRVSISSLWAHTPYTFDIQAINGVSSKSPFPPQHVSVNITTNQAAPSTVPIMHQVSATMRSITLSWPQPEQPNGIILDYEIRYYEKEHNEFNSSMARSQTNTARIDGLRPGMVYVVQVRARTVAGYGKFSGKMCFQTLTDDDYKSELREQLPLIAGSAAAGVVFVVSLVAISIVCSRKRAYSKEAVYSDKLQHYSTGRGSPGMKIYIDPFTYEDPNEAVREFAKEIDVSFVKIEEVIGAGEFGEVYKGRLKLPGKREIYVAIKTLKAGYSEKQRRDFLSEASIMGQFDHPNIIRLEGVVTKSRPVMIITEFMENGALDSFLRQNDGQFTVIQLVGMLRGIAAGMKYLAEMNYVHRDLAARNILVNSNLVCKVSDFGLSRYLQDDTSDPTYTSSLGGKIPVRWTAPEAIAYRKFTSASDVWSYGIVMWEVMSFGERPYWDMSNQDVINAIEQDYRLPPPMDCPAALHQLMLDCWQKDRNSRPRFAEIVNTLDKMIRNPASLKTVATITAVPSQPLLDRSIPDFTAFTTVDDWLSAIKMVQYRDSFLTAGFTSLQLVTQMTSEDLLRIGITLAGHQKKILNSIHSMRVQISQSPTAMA

| Sequence | SH2 binding enrichment (Grb2 SH2) | SH2 binding enrichment (c-Src SH2) | SH2 binding enrichment (SHP2-C SH2) | phosphorylation enrichment (EPHB1) | phosphorylation enrichment (EPHB2) | phosphorylation enrichment (FGFR1) | phosphorylation enrichment (AncSZ) | phosphorylation enrichment (c-Abl (mouse)) | phosphorylation enrichment (Hck) | phosphorylation enrichment (Fer (mouse)) | phosphorylation enrichment (Jak2) | phosphorylation enrichment (MERTK) | phosphorylation enrichment (c-Src) | phosphorylation enrichment (Fes) | phosphorylation enrichment (Fyn) | phosphorylation enrichment (FGFR3) |
| --- | --- | --- | --- | --- | --- | --- | --- | --- | --- | --- | --- | --- | --- | --- | --- | --- |
| IHHIDYFKETT [FGFR1_Y653_K656E_YF] | 0.832 | 0.447 | 0.767 | 0.456 | 0.415 | 0.443 | 0.605 | 0.445 | 0.446 | 0.451 | 0.692 | 0.427 | 0.489 | 0.778 | 0.555 | 0.567 |
| IKETHYMVDKC | 0.684 | 0.525 | 0.68 | 0.447 | 0.531 | 0.489 | 0.8 | 0.652 | 0.448 | 0.507 | 0.804 | 0.437 | 0.403 | 0.944 | 0.46 | 0.543 |
| IKSSIYDNRKE [ARAP2_Y380] | 0.934 | 0.445 | 0.741 | 0.307 | 0.321 | 0.538 | 1.13 | 0.518 | 0.753 | 0.355 | 0.586 | 0.416 | 0.58 | 0.725 | 0.366 | 0.504 |
| ILILKYPIEHG [ACTA1_Y71_T68I] | 2.07 | 1.58 | 1.72 | 0.612 | 0.479 | 0.525 | 1.07 | 0.818 | 0.488 | 0.694 | 1.11 | 0.424 | 0.491 | 1.29 | 0.39 | 0.807 |
| ILQSMYGCDVG [HLA-B_Y123_T118I] | 0.818 | 0.402 | 0.566 | 0.659 | 0.51 | 0.403 | 0.816 | 0.546 | 0.517 | 0.48 | 0.893 | 0.438 | 0.569 | 0.935 | 0.489 | 0.624 |
| IMAFFYMCDRA [CASD1_Y382_YF] | 0.819 | 0.641 | 0.825 | 0.938 | 0.648 | 0.652 | 1.48 | 1.09 | 0.545 | 0.677 | 1.64 | 0.544 | 0.57 | 1.63 | 0.57 | 1.12 |
| IMAFFYMCDSA [CASD1_Y382_R386S_YF] | 1.1 | 0.551 | 0.725 | 0.896 | 0.782 | 0.791 | 1.44 | 1.11 | 0.658 | 0.805 | 1.41 | 0.401 | 0.596 | 1.78 | 0.548 | 1.12 |
| INQGPYENRSV [ATP6V1B1_Y462] | 1.2 | 0.532 | 0.643 | 0.381 | 0.568 | 0.421 | 0.558 | 0.475 | 0.423 | 0.4 | 0.47 | 0.38 | 0.435 | 0.622 | 0.38 | 0.441 |
| IPGGIYDADLN [CST4_Y35] | 0.991 | 0.823 | 0.876 | 0.582 | 0.649 | 0.746 | 1.24 | 1.14 | 1.65 | 0.611 | 1.4 | 0.787 | 1.62 | 1.32 | 1.76 | 0.836 |
| IPTPAYQSLPA [PDCD6IP_Y727_S730L] | 0.707 | 1.18 | 0.876 | 0.506 | 0.501 | 0.497 | 0.652 | 0.546 | 0.941 | 0.341 | 0.616 | 0.898 | 0.416 | 0.624 | 0.467 | 0.711 |
| IPTPAYQSSPA [PDCD6IP_Y727] | 0.767 | 0.567 | 0.566 | 0.452 | 0.364 | 0.377 | 0.489 | 0.504 | 0.38 | 0.373 | 0.541 | 0.356 | 0.369 | 0.674 | 0.406 | 0.422 |
| IQSAKYDMAED [TTC21B_Y1213] | 0.823 | 1.3 | 0.679 | 0.572 | 0.724 | 0.611 | 1.21 | 0.825 | 0.687 | 0.503 | 1.2 | 0.484 | 0.513 | 1.21 | 0.59 | 0.793 |
| IRRQGYSHRIL [MYO3B_Y993] | 0.762 | 0.542 | 0.526 | 0.4 | 0.568 | 0.374 | 0.733 | 0.469 | 0.419 | 0.43 | 0.475 | 0.464 | 0.42 | 0.656 | 0.465 | 0.469 |
| IRTIDYRFTVS [IDS_Y497_W502S_YF] | 1.18 | 0.813 | 1.18 | 0.496 | 0.547 | 0.483 | 0.907 | 0.989 | 0.444 | 0.596 | 0.989 | 0.441 | 0.458 | 1.05 | 0.424 | 0.683 |
| ISNATYKEIGL [FLT1_Y199] | 0.823 | 1.04 | 0.587 | 0.352 | 0.498 | 0.446 | 0.462 | 0.467 | 0.485 | 0.471 | 0.442 | 0.304 | 0.366 | 0.605 | 0.447 | 0.438 |
| ISNATYKQIGL [FLT1_Y199_E201Q] | 0.863 | 0.481 | 0.78 | 0.421 | 0.342 | 0.378 | 0.667 | 0.566 | 0.349 | 0.362 | 0.513 | 0.419 | 0.399 | 0.582 | 0.434 | 0.399 |
| ISRVLYPNDNF [PYGM_Y281] | 0.743 | 0.446 | 0.626 | 0.438 | 0.524 | 0.448 | 0.649 | 0.602 | 0.395 | 0.422 | 0.675 | 0.37 | 0.477 | 0.748 | 0.759 | 0.472 |
| ITQRAYRRHLL [SCN1A_Y1926_I1922T] | 0.69 | 0.404 | 0.585 | 0.427 | 0.417 | 0.442 | 0.63 | 0.547 | 0.457 | 0.403 | 0.573 | 0.585 | 0.622 | 0.557 | 0.444 | 0.48 |
| IVKAFYVHARA [AIPL1_Y268_R270H_YF] | 1.36 | 0.781 | 1.53 | 0.492 | 0.621 | 0.479 | 1.04 | 0.718 | 0.488 | 0.559 | 0.955 | 0.601 | 0.41 | 1.18 | 0.585 | 0.825 |
| IWDLKYTIENP [SND1_Y178_R174W] | 1.06 | 0.467 | 0.755 | 0.593 | 0.498 | 0.497 | 1.01 | 1.07 | 0.433 | 0.496 | 1.02 | 0.426 | 0.688 | 1.16 | 0.353 | 0.82 |
| IYETDYYRKGG [INSR_Y1189] | 0.863 | 0.59 | 0.621 | 0.645 | 0.673 | 0.479 | 1.05 | 0.626 | 1.28 | 1.54 | 0.942 | 3.92 | 1.16 | 0.885 | 1.14 | 0.771 |
| IYHLSYLHNCE [PDE6B_Y227] | 0.959 | 0.792 | 1 | 0.778 | 0.764 | 1.95 | 1.46 | 3.41 | 1.75 | 1.28 | 1.26 | 3.92 | 2.56 | 1.54 | 2.63 | 1.74 |
| KAIMIYVSSFF [ACTN4_Y260_T259I_YF] | 0.948 | 0.567 | 0.967 | 0.457 | 0.606 | 0.446 | 0.945 | 0.684 | 0.429 | 0.444 | 0.925 | 0.457 | 0.534 | 1.06 | 0.422 | 0.666 |
| KAIMTYVSSFF [ACTN4_Y260_YF] | 0.962 | 0.677 | 0.878 | 0.57 | 0.602 | 0.533 | 0.911 | 0.527 | 0.531 | 0.437 | 0.561 | 0.494 | 0.592 | 0.821 | 0.559 | 0.647 |
| KALSLYTKLMN [STAM_Y371_E366K] | 1.12 | 2.23 | 3.1 | 0.673 | 0.774 | 0.555 | 1.36 | 0.605 | 0.537 | 0.588 | 1.14 | 0.446 | 0.393 | 1.32 | 0.46 | 0.872 |
| KAVLHYKHQNQ [MTOR_Y1804_E1799K] | 1.12 | 0.861 | 0.734 | 0.423 | 0.328 | 0.427 | 0.6 | 0.891 | 0.449 | 0.469 | 0.622 | 0.366 | 0.366 | 0.863 | 0.36 | 0.629 |
| KDHPDYKFQLR [SOX10_Y171_P175L_YF] | 0.772 | 0.649 | 0.691 | 0.49 | 0.492 | 0.478 | 0.798 | 0.512 | 0.406 | 0.65 | 0.698 | 0.454 | 0.512 | 0.824 | 0.409 | 0.633 |
| KDPPDYKYQPR [SOX9_Y172_H169P] | 1.02 | 0.503 | 1.02 | 0.489 | 0.518 | 0.461 | 0.837 | 0.747 | 0.353 | 0.421 | 0.663 | 0.375 | 0.538 | 0.788 | 0.51 | 0.479 |
| KGEDFYSVTCH [FHL1_Y149_C150S] | 0.688 | 0.47 | 0.706 | 0.806 | 0.632 | 0.849 | 1.47 | 0.899 | 3.19 | 3.47 | 1.13 | 4.71 | 3.96 | 1.35 | 5.87 | 0.942 |
